The text below walks through data of PMC3101628 (Nature structural & molecular biology, 2011).

Changes are numbered by the printed parent chain. Numbers in names are those of the source. Where “and” joins values, the source holds several entries; their conditions need not be identical. Identical values can stand only once. Like-named read-outs stand apart in the source and are kept apart here.

Data set [1] deals with the molecule itself. In words: SEC. (In general: Size exclusion chromatography separates by hydrodynamic size, large species first.)
Data set [2] concerns the molecule itself. In words: SEC. This is another data set of the same source.
Data set [3] concerns the molecule itself. In words: SEC. This is another data set of the same source.
The data set “SEC-MALS” deals with the molecule itself. The data set is described as follows: SEC-MALS.
Data set [4] deals with the molecule itself. In words: SEC. This is another data set of the same source.
Data set [5] concerns the molecule itself. The data set is described as follows: SEC. This is another data set of the same source.
Data set [6] deals with the molecule itself. The data set is described as follows: SEC. This is another data set of the same source.
Data set [7] concerns the molecule itself.
Data set [8] concerns the molecule itself. The data set is described as follows: SEC. The source holds these as a separate data set.

B1: human ribonucleotide reductase RR1 (hRRM1), wild type (enzyme, UniProt P23921 1-792, looked up)
chain: MHVIKRDGRQERVMFDKITSRIQKLCYGLNMDFVDPAQITMKVIQGLYSGVTTVELDTLAAETAATLTTKHPDYAILAARIAVSNLHKETKKVFSDVMEDLYNYINPHNGKHSPMVAKSTLDIVLANKDRLNSAIIYDRDFSYNYFGFKTLERSYLLKINGKVAERPQHMLMRVSVGIHKEDIDAAIETYNLLSERWFTHASPTLFNAGTNRPQLSSCFLLSMKDDSIEGIYDTLKQCALISKSAGGIGVAVSCIRATGSYIAGTNGNSNGLVPMLRVYNNTARYVDQGGNKRPGAFAIYLEPWHLDIFEFLDLKKNTGKEEQRARDLFFALWIPDLFMKRVETNQDWSLMCPNECPGLDEVWGEEFEKLYASYEKQGRVRKVVKAQQLWYAIIESQTETGTPYMLYKDSCNRKSNQQNLGTIKCSNLCTEIVEYTSKDEVAVCNLASLALNMYVTSEHTYDFKKLAEVTKVVVRNLNKIIDINYYPVPEACLSNKRHRPIGIGVQGLADAFILMRYPFESAEAQLLNKQIFETIYYGALEASCDLAKEQGPYETYEGSPVSKGILQYDMWNVTPTDLWDWKVLKEKIAKYGIRNSLLIAPMPTASTAQILGNNESIEPYTSNIYTRRVLSGEFQIVNPHLLKDLTERGLWHEEMKNQIIACNGSIQSIPEIPDDLKQLYKTVWEISQKTVLKMAAERGAFIDQSQSLNIHIAEPNYGKLTSMHFYGWKQGLKTGMYYLRTRPAANPIQFTLNKEKLKDKEKVSKEEEEKERNTAAMVCSLENRDECLMCGS
Usually stoichiometry N stands for the number of molecules, sites or subunits per partner or assembly. For B1, the “stoichiometry N” value stood at 6 in “SEC [1]” and 2 in the data set “SEC [2]”.

B2: hRRM1 D16R (enzyme, human, UniProt P23921 1-792, looked up)
chain: B1 chain with D16R
With B2, the “stoichiometry N” value in the data set “SEC [3]” is 6; in the data set “SEC-MALS”, 2.

B3: hRRM1 H2E (enzyme, human, UniProt P23921 1-792, looked up)
chain: B1 chain with H2E
B3: the “stoichiometry N” value in the data set “SEC [1]” is 2 and 6.

B4: hRRM1 D57N (enzyme, human, UniProt P23921 1-792, looked up)
chain: B1 chain with D57N
As to B4, the entries for the “stoichiometry N” value in “SEC [4]” and in the data set “SEC [5]” were 2 and 6, respectively.

B5: hRRM1 with the first 74 residues deleted (t-hRRM1) (domain or fragment, human, UniProt P23921 75-792, looked up)
chain: AILAARIAVSNLHKETKKVFSDVMEDLYNYINPHNGKHSPMVAKSTLDIVLANKDRLNSAIIYDRDFSYNYFGFKTLERSYLLKINGKVAERPQHMLMRVSVGIHKEDIDAAIETYNLLSERWFTHASPTLFNAGTNRPQLSSCFLLSMKDDSIEGIYDTLKQCALISKSAGGIGVAVSCIRATGSYIAGTNGNSNGLVPMLRVYNNTARYVDQGGNKRPGAFAIYLEPWHLDIFEFLDLKKNTGKEEQRARDLFFALWIPDLFMKRVETNQDWSLMCPNECPGLDEVWGEEFEKLYASYEKQGRVRKVVKAQQLWYAIIESQTETGTPYMLYKDSCNRKSNQQNLGTIKCSNLCTEIVEYTSKDEVAVCNLASLALNMYVTSEHTYDFKKLAEVTKVVVRNLNKIIDINYYPVPEACLSNKRHRPIGIGVQGLADAFILMRYPFESAEAQLLNKQIFETIYYGALEASCDLAKEQGPYETYEGSPVSKGILQYDMWNVTPTDLWDWKVLKEKIAKYGIRNSLLIAPMPTASTAQILGNNESIEPYTSNIYTRRVLSGEFQIVNPHLLKDLTERGLWHEEMKNQIIACNGSIQSIPEIPDDLKQLYKTVWEISQKTVLKMAAERGAFIDQSQSLNIHIAEPNYGKLTSMHFYGWKQGLKTGMYYLRTRPAANPIQFTLNKEKLKDKEKVSKEEEEKERNTAAMVCSLENRDECLMCGS
As for B5, the “stoichiometry N” value in the data set “SEC [6]” is 2.

B6: ScRR1 D182R (enzyme, S. cerevisiae)
chain: MYVYKRDGRKEPVQFDKITARISRLCYGLDPKHIDAVKVTQRIISGVYEGVTTIELDNLAAETCAYMTTVHPDYATLAARIAISNLHKQTTKQFSKVVEDLYRYVNAATGKPAPMISDDVYNIVMENKDKLNSAIVYDRDFQYSYFGFKTLERSYLLRINGQVAERPQHLIMRVALGIHGRRIEAALETYNLMSLKYFTHASPTLFNAGTPKPQMSSCFLVAMKEDSIEGIYDTLKECALISKTAGGIGLHIHNIRSTGSYIAGTNGTSNGLIPMIRVFNNTARYVDQGGNKRPGAFALYLEPWHADIFDFIDIRKNHGKEEIRARDLFPALWIPDLFMKRVEENGTWTLFSPTSAPGLSDCYGDEFEALYTRYEKEGRGKTIKAQKLWYSILEAQTETGTPFVVYKDACNRKSNQKNLGVIKSSNLCCEIVEYSAPDETAVCNLASVALPAFIETSEDGKTSTYNFKKLHEIAKVVTRNLNRVIDRNYYPVEEARKSNMRHRPIALGVQGLADTFMLLRLPFDSEEARLLNIQIFETIYHASMEASCELAQKDGPYETFQGSPASQGILQFDMWDQKPYGMWDWDTLRKDIMKHGVRNSLTMAPMPTASTSQILGYNECFEPVTSNMYSRRVLSGEFQVVNPYLLRDLVDLGIWDEGMKQYLITQNGSIQGLPNVPQELKDLYKTVWEISQKTIINMAADRSVYIDQSHSLNLFLRAPTMGKLTSMHFYGWKKGLKTGMYYLRTQAASAAIQFTIDQKIADQATENVADISNLKRPSYMPSSASYAASDFVPAAVTANATIPSLDSSSEASREASPAPTGSHSLTKGMAELNVQESKVEVPEVPAPTKNEEKAAPIVDDEETEFDIYNSKVIACAIDNPEACEMCSG
Turning to B6, the “stoichiometry N” value in data set [7] was found to be 6.

B7: S. cerevisiae ribonucleotide reductase RR1 (ScRR1), wild type (enzyme)
chain: B6 chain with R182D
In the case of B7, the “stoichiometry N” value in “SEC [8]” was 6.
